From patent US20250109212A1
Where two headings read alike, the source gives them in different places.

Legend:
[1] = target: full length human CD47 (NCBI #NP_942088.1) on 293F-CD47 cells (human) (UniProt Q08722); assay: FACS on 293F-CD47 cells, detection with goat anti-human IgG (Fc)-PE, MFI
[2] = target: full length human CD47 (NCBI #NP_942088.1) on 293F-CD47 cells (human) (UniProt Q08722); assay: cell-based blocking FACS on 293F-CD47 cells, blocked ligand biotin-labeled human CD172a-Fc, MFI
[3] = target: full length human CD47 (NCBI #NP_942088.1) on 293F-CD47 cells (human) (UniProt Q08722); assay: as above; remark: listed apart in the source

In the case of SIRPα-isoform2-Fc (Fc fusion), the EC50 [1] is reported as 1.72 nM, the IC50 [2] is reported as 1.9 nM and the IC50 [3] is reported as 3.25 nM.
